Assay: yeast display, Sf9 membrane polyspecificity reagent, FACS + sequencing; frameworks hold sequencing errors
Summary of the method: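 Genes from sorted yeast were amplified by colony PCR, read by MiSeq 2 × 250 sequencing and filtered on CDR length. These cells carried a synthetic nanobody library in Saccharomyces cerevisiae BJ5465 and were sorted by FACS into low and high (top ~1%) gates on anti-HA and streptavidin fluorescence. Polyreactivity is labelled according to the gate of origin.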
In the case of “QVQLVESGGRLVQAGGSLRLSCAASGFTFNYNAMGWYRQAPGKERELVAAISRSGGSTYYADSVMGRFTISRDNAKNTFYLQMNSLKPEDTAVYYFAAVRDIGKYGYWGQGTQVTVSS”, the “polyreactivity (PSR sort gate)” value is reported as “high polyreactivity”.
For “QVQLVESGGRLVQAGGSLRLSCAASGFTYSPYAMGWYRQAPWKESELVAAITSSGGSTYYADSVKGRFTISRDNANNSVYLQMKSLKPEDTAVYYSAADYGYKYYWRYGYWGQGTQVTVSS”, the “polyreactivity (PSR sort gate)” value was “high polyreactivity”.
For “QVQLVESGGRLVQAGGSLRLSCAASGITFYYYAMGWYRQAPGKERELVAAISVSGGSTYYADSVKGRFTISRDNAKNTVYLQMNSLKPEDTAVYYCAAADLLSYTYPEYDYWGQGTQVTVSS”, the “polyreactivity (PSR sort gate)” value was “low polyreactivity”.
For “QVQLVESGGRLVQAGGSLRLSCAASGLIFAPYAMGWYRQAPGKEWELVAAISSSGTSTYYADSVKGRFTISRDNAKNTVYLQMNSLKPEDTAVYYCAAVYWTFWGTIATRYDYWGQGTQVTVSS”, the “polyreactivity (PSR sort gate)” value was “high polyreactivity”.
For “QVQLVESGGRLVQAGGSLRLSCAASGLIIDYYTMGWYRQAPGKERELVAAINKSGGSTYADSVKGRFTISRDNAKNTVYLQMNCLKPEDSAVYYCAAEVDYSYWPEYSRKYYYWGEGTQVTVSS”, the “polyreactivity (PSR sort gate)” value was “low polyreactivity”.
In the case of “QVQLVESGGRLVQAGGSLRLSCAASGLTLFRYDQGWYRQAPGKERELVAAIDYGGGTYYADSVKGRFTISRDNAKNTVYLQMNSLKPEDTAVYYCAVEPEYKYYEGDYWGQGTQVTVSS”, the “polyreactivity (PSR sort gate)” value is reported as “low polyreactivity”.
For “QVQLVESGGRLVQAGGSLRLSCAASGRIFGAYAMGWYRQAPGKERELVAAINSGGSTFYADSVKGRFTISRDNAKNTVYLQMNRLKPEDTAVYYCAKRSYDYRRYSWGQGTQVTVSS”, the “polyreactivity (PSR sort gate)” value was “high polyreactivity”.
For “QVQLVESGGRLVQAGGSLRLSCAASGRIFNYYDMGWYSQAPGKERELVAAINYSGGSTYYADSVKGRFTISRDNAKNTVSLQMNSLKAEDTAVYYCAADGYYYYCYGTTDQDDYWGLGTQVTVSS”, the “polyreactivity (PSR sort gate)” value was “low polyreactivity”.
For “QVQLVESGGRLVQAGGSLRLSCAASGRIFRYYTMGWYRQAPGKERELVAAITRRGGITNYADSVKGRFTISRDNAKNTVYLQTNSLKPEDTAVYYCAAKYVSQGYDYWGQGTQVTVSS”, the “polyreactivity (PSR sort gate)” value was “high polyreactivity”.
With “QVQLVESGGRLVQAGGSLRLSCAASGRIFTGSNVMGWYRQAPGKEREFVAVINSGGGSTYYADSVKGRFTISRDNAKNTVYLQMNSLKPEDTAVYYCAADVGGWGYYDWVQGTQVTVSS” the “polyreactivity (PSR sort gate)” value was “low polyreactivity”.
For “QVQLVESGGRLVQAGGSLRLSCAASGRIFVYNAMRWYRQAPGKERELVASITSSGGSTYYADSVKGRFTISRDNAKNTVYLQMNSLKPEDTAVYYCAADVQPDTRSTPEMDYWGQGTQVTVSS”, the “polyreactivity (PSR sort gate)” value was “low polyreactivity”.
For “QVQLVESGGRLVQAGGSLRLSCAASGRIFYPYAMGWYRQAPGKERELVASISSSGDRTYYADSVKGRFTISRDNAKNTVYLQMNSLKPEDTAVYYCAARWRYTYYYWGQGTQVTVSS”, the “polyreactivity (PSR sort gate)” value was “high polyreactivity”.
In the case of “QVQLVESGGRLVQAGGSLRLSCAASGRILRQYTMGWYRQAPGKERELVAGITGSDSSTYYADSVKGRFTISRDNAKNTVYFQMNSLKPEDRAVYYCGTYRWGTLASIYYYWGQGPQVTVSS”, the “polyreactivity (PSR sort gate)” value is reported as “low polyreactivity”.
With “QVQLVESGGRLVQAGGSLRLSCAASGRTFNRNAMVWYRQAPGKERELVAAISRGGGGTYYADSVMGRFTISRDNAKNTVYLQMNSLKPEDTAVYYCNAAPYYVMYLLWSSNTYDYWGQGTQVTVSS” the “polyreactivity (PSR sort gate)” value was “high polyreactivity”.
For “QVQLVESGGRLVQAGGSLRLSCAASGRTFRWYAMGWYRQAPGKEREVVAAITFSGGSTYYADSVKGRFTISRDIAKNTVYLQMNSLKPEDTAVYYCNAVYYRRKEYDYWGQGTQVTVSS”, the “polyreactivity (PSR sort gate)” value was “high polyreactivity”.
With “QVQLVESGGRLVQAGGSLRLSCAASGRTFSTYDMGWSRQAPGKERELVAAITSTGDTPYYADSVKGRFTISRDTAKNTVYLQLNSLKPEDTAVYYCAAYASWHQWIYAFYGLDYWGQGTQVTVSS” the “polyreactivity (PSR sort gate)” value was “low polyreactivity”.
For “QVQLVESGGRLVQAGGSLRLSCAASGRTFYGYAMGWYRQAPGKEREFVAAISVGGGSTYYADSVKGRFTISRDKAKNTVYLQMNSLKPEDTAVYYCAAYTRYWSYGYWGQGTQVTVSS”, the “polyreactivity (PSR sort gate)” value was “high polyreactivity”.
For “QVQLVESGGRLVQAGGSLRLSCAASGRTIYSNTMGWYRQAPGKEREFVAAIPSIVGSTYYADSVKGRFTISRDNAKNTVYLQMNSLKPEDTAVYYCAVTDYYSYLLRYDSWGQGTQVTVSS”, the “polyreactivity (PSR sort gate)” value was “low polyreactivity”.
In the case of “QVQLVESGGRLVQAGGSLRLSCAASGSIFIPNAMGWYRQAPGKERELVAAITVSGGITYYADSVKGRFTISRDNAKNSVYLQMNSLKPEDTAVYYCAADFTIYYILEYDYWGQGTQVTVSS”, the “polyreactivity (PSR sort gate)” value is reported as “low polyreactivity”.
For “QVQLVESGGRLVQAGGSLRLSCAASGSIFRSYAMGWYRQAPGKERELVATISSSTGSTYYADSVKGRFTISRDNAKNTVYLQRNSLKPEDTAVYYCNAQRRWSIYGYFYYWGQGTQVTVSS”, the “polyreactivity (PSR sort gate)” value was “high polyreactivity”.
For “QVQLVESGGRLVQAGGSLRLSCAASGSIFSGYTMGWYRQAPGKERELVAAISSDGSTTYADSVKGRFTISRDNAKNTVYLQLNSLKPEDSAVYYSAAYPYWDGSYGGYDYWGQGTQVTVSS”, the “polyreactivity (PSR sort gate)” value was “low polyreactivity”.
With “QVQLVESGGRLVQAGGSLRLSCAASGSTFGPYTMGWYRQAPGKERELVATISSGGSTYYADSVKGRFTISRDNAKNTVYLQMNSLKPEDTAVYYCAARYWSIYDYWGQGTQVTVSS” the “polyreactivity (PSR sort gate)” value was “low polyreactivity”.
In the case of “QVQLVESGGRLVQAGGSLRLSCAASGSTFGWYTMGWYRQAPGKERELVAAITSRGTRTSYADSVKARFTISRDNAKNTVYLQMNSLKPEDTAVYYCAARVFRGLGEYYWGQGTQVTVSS”, the “polyreactivity (PSR sort gate)” value is reported as “high polyreactivity”.
With “QVQLVESGGRLVQAGGSLRLSCAASGSTFPLYARGWCRQAPGKERELVAAITGGGGRTYYADSVKGRFTISRDNAKNTVYLQMNSLKPEDTGVYYCNAVVYLTNYWYDYWGQGTQVTVSS” the “polyreactivity (PSR sort gate)” value was “low polyreactivity”.
In the case of “QVQLVESGGRLVQAGGSLRLSCAASGSTFVYYAMGWYRQAPGKERELVASINSGGSTYYADSVKGRFTISRDNAKNTVYLQMNSLKQEDTAVYDCAATSIPPSVHLQDPTYDYWGQGTQVTVSS”, the “polyreactivity (PSR sort gate)” value is reported as “low polyreactivity”.
With “QVQLVESGGRLVQAGGSLRLSCAASGSTIKSYAMGWYRQAPGKERELVAGITSGDSTNYADSVKGRFTISRDNAKNTVYFQMNSLKPDDTAVYYCNAVTQARYYYWGQGYQVTVSS” the “polyreactivity (PSR sort gate)” value was “low polyreactivity”.
In the case of “QVQLVESGGRLVQAGGSLRLSCADSGRTFYLYAMGWYRQAPGKEREFVADITFSGASTDYAASVKGRFTISRDNAKNTVYLQMNSLKPEDTAVYYCNADIAHVCWWSYPTDDYWGQGTQVTVSS”, the “polyreactivity (PSR sort gate)” value is reported as “high polyreactivity”.
In the case of “QVQLVESGGRLVQAGGSLRLSCAPSGIIFIWNTMGWYRQAPGKESEFVAAISRSGSGTSYADSVKGRFTISRDNAKNTVYLQMNSLKPEDTAVYYCAARLECPYDMYYWGQGTQVTVSS”, the “polyreactivity (PSR sort gate)” value is reported as “low polyreactivity”.
In the case of “QVQLVESGGRLVQAGGSLRLSCAPSGRIFWAYAMGWYRPAPGKERELVAAITSGGSTYYADSVKGRFTISRDNAKNTVYLQMNSLKPEDTAVYYCAVGSKWVDDSPEDVYWGQGTQVTVSS”, the “polyreactivity (PSR sort gate)” value is reported as “low polyreactivity”.
With “QVQLVESGGRLVQAGGSLRLSGAASGSTIQTNVMGWYRQAPGKERELLAAISSGGSTNYADSVKGRFTISRDNAKNNVYLQMNSLKPEDTADYYCAKRWPYFRRGKDGYCGQGTQVTVSS” the “polyreactivity (PSR sort gate)” value was “low polyreactivity”.
For “QVQLVESGGRLVQAGGSLRLSSAASGSTFSFYVMRWYRQAPGKERELVAAISWSSVGTYSADSVKGRFTISRDNAKNTVYLQMNSLKPEDTAVYYCAADSYRRVAKHGYWGQGTQVTVSS”, the “polyreactivity (PSR sort gate)” value was “high polyreactivity”.
In the case of “QVQLVESGGRLVQAGGSLSLSCASSGRIFWTYAMGLTRQAPGEERELVAAINSSDGTYYADSVKGRFTISRDNAKNTVYLQKNSLKPEDTAVYYCNADRDALVGYDYDYWGQGTQVTVSS”, the “polyreactivity (PSR sort gate)” value is reported as “low polyreactivity”.
For “QVQLVESGGRLVQAGGTLPLSSAASGLIFGYYAMGFYIQAPGKERELDADISSGGSTNYADSVKGRFTISRENAKNTVYLQMNRLTPEDTAVFYCAARYSRWFGYCGQGTQVTVSS”, the “polyreactivity (PSR sort gate)” value was “high polyreactivity”.
For “QVQLVESGGRLVQAGGTLRLSCAASGSICGFNAMGWYRQAPGKERELVAAINNGGSKNYADSVKGRFTISRDNAKITVYLQMKILKQEDTEVYYCAARLNYIRRGYWGQGTQVTVSS”, the “polyreactivity (PSR sort gate)” value was “high polyreactivity”.
With “QVQLVESGGRLVQAGVILRLSCAASGSTFAPYAMGWYRQSPGKESELVATISASGGTTYYADSVKGRFTISRDNAKNTVYLQMNSLKPEDTAVYYCNADSNWYDQWNYYGLNDYWGQGTQVTVSS” the “polyreactivity (PSR sort gate)” value was “low polyreactivity”.
For “QVQLVESGGRLVQAGVSLRISSAASGYISRVYAMGWYRHAPGKERELVAAITRSTTYYADSVKGRFTISRDNAKNTVYLQMNSLKPEDTAVDYCNADWASPGQVRMYYWGQGTQVTVSS”, the “polyreactivity (PSR sort gate)” value was “high polyreactivity”.
In the case of “QVQLVESGGRLVQARGSLRLICAASGLIIAYYTMGWYRQAPGKEREFVAVIDWIGVSTYYADSVKGRFTISRDNAKNTVYLQMNSLKPEDTAVYYCNADNAFPSPKSSLDYWGQGTQVTVSS”, the “polyreactivity (PSR sort gate)” value is reported as “low polyreactivity”.
For “QVQLVESGGRLVQARGSLRLSCAASGRIFYDYAMGCYRQAPGKESELVAAISGSGGSTYYADSVKGRFTISRDNAKNTVYLQMNSLKPEDTAVYYCNRYTTRYYPGGDYWGQGTQVTVSS”, the “polyreactivity (PSR sort gate)” value was “high polyreactivity”.
For “QVQLVESGGRLVQPGGSLRLSCAASGRTFVLNAIGWYRQAPGKEREFVAAISWGGVRTDYADSVKGRFTISRDNAKNTVYLQMNSLKPEDTAVYYCATSGSRYRRYDYWGQGTQVTVSS”, the “polyreactivity (PSR sort gate)” value was “high polyreactivity”.
With “QVQLVESGGRLVQSGGSLRLICAASGQIFQWYAMGWYRQAPGKETELVAAISSGDSTYYADSVTGRFTISRDNAKNTVYLDMNSLKPEDTAVDYCNARAIGWRIYDYWGQGTEVTVSS” the “polyreactivity (PSR sort gate)” value was “high polyreactivity”.
With “QVQLVESGGRLVQSGGSLRLSCAASGRTIVENAMGLYRQAPGKEREFVAAISYKGGSTYYADSVKGRFTISRDNAKNTVYFQMNSLNPEDTAVYYCAADPNYGYDYWGQGTQVTVST” the “polyreactivity (PSR sort gate)” value was “low polyreactivity”.
